Paper PMC11399263 (Nature Communications, 2024)

Columns and labels:
[1] = target: 6x His-tagged metformin hydrolase α subunit of Aminobacter niigataensis MD1 (Aminobacter niigataensis MD1); assay: crystal structure; 6x His-AnMefH complex, 13.3 mg/ml; crystals from 20% PEG 3350, 100 mM Bis Tris Propane-HCl pH 6.5, 200 mM NaF, 18 °C; soaked with urea
MefHα/DmgHβ = target: T1, MefHα/DmgHβ (Aminobacter niigataensis, UniProt A0AAX7FLU4); assay: guanylurea production by LC-MS; type: biochemical; settings: 2 mM substrate, Tris-HCl pH 8, 30 °C
T1 construct: gene N7E70_023840; subunit-swapped heteromer of full-length subunits from two strains, co-expressed in E. coli; with Dimethylguanidine hydrolase subunit beta
T1 sequence (A0AAX7FLU4 20-376): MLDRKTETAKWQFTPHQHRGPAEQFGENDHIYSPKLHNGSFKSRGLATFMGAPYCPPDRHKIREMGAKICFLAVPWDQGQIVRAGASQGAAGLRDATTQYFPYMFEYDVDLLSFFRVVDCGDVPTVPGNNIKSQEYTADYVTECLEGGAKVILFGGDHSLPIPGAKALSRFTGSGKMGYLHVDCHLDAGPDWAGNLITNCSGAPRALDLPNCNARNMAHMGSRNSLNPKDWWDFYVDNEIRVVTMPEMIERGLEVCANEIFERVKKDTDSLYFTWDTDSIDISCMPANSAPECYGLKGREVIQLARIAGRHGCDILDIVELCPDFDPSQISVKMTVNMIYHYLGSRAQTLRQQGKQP
T1 sequence (A0ABR6L539 1-348 partner): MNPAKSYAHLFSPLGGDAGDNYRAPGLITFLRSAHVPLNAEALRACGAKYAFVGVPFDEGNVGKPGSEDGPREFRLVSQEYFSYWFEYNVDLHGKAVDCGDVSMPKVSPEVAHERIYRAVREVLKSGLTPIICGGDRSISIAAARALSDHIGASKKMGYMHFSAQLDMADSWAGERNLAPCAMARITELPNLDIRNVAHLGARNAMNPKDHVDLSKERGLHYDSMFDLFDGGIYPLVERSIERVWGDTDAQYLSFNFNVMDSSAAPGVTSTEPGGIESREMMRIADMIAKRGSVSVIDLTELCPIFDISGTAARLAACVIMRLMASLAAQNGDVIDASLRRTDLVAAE

stoichiometry N (MefHβ per MefHα) [1] | Molecule | guanylurea production by LC-MS (MefHα/DmgHβ)
2 | metformin hydrolase β subunit of Aminobacter niigataensis MD1, untagged (natural protein) | –
– | CN(C)C(=N)NC(=N)N [metformin] | MefHα/DmgHβ preferentially hydrolyzed metformin
